The subject of the data set is Escherichia coli TOP10. Kind of data set: shrunken log2 fold change of peptide-encoding DNA abundance (4.5 h post-induction vs induction); higher = less antimicrobial activity (less host growth inhibition). The following applies: time post-induction: 4.5 h; library: site-saturation at positions 5, 18, 19, 20.

Here are results for 125 sequences from the supplement of paper PMC9112550, “Optimization of the antimicrobial peptide Bac7 by deep mutational scanning” (BMC Biology, 2022).
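Further: peptides expressed intracellularly from a pBAD plasmid library in pooled LB shake-flask culture, induced with 0.3% L-arabinose, DNA abundance read by NGS, three biological replicates, DESeq2 with apeglm shrinkage.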

As for RRIRPRPPRLPRPRPRPIDCPRP, the “shrunken log2 fold change” value is -0.0101. The result for RRIRHRPPRLPRPRPRPNHAPRP reads -0.223; that for RRIRLRPPRLPRPRPRPADIPRP, -0.00142. The result for RRIRPRPPRLPRPRPRPITYPRP reads -0.782; that for RRIRCRPPRLPRPRPRPPQFPRP, 0.695; that for RRIRRRPPRLPRPRPRPECKPRP, -0.0282.

In the case of RRIRTRPPRLPRPRPRPDPSPRP, the “shrunken log2 fold change” value was -0.0208. As for RRIRKRPPRLPRPRPRPGWLPRP, the “shrunken log2 fold change” value is 0.593. As for RRIRRRPPRLPRPRPRPRYNPRP, the “shrunken log2 fold change” value is -0.132.

For the sequence RRIRRRPPRLPRPRPRPKWIPRP, the “shrunken log2 fold change” value is -0.096. With RRIRERPPRLPRPRPRPCRIPRP, the “shrunken log2 fold change” value is -0.0965.

Consider RRIRIRPPRLPRPRPRPGEHPRP, for which the “shrunken log2 fold change” value was -0.0955. The result for RRIRLRPPRLPRPRPRPSIPPRP reads -0.711; that for RRIRNRPPRLPRPRPRPGGEPRP, -0.0266; that for RRIRMRPPRLPRPRPRPTWEPRP, 0.312. With RRIRNRPPRLPRPRPRPCAFPRP the figure was -0.071; with RRIRCRPPRLPRPRPRPEYNPRP, -0.243; with RRIRCRPPRLPRPRPRPMKMPRP, -0.0497.

As to RRIRHRPPRLPRPRPRPDGGPRP, the “shrunken log2 fold change” value was -0.137. With RRIRKRPPRLPRPRPRPTMSPRP the figure was 0.22. The result for RRIRYRPPRLPRPRPRPCWRPRP reads -0.138; that for RRIRQRPPRLPRPRPRPHWHPRP, -0.465; that for RRIRMRPPRLPRPRPRPCWYPRP, 0.092. The result for RRIRNRPPRLPRPRPRPFMQPRP reads -0.194. Take RRIRPRPPRLPRPRPRPQATPRP: the “shrunken log2 fold change” value was -0.2. The result for RRIRVRPPRLPRPRPRPVSPPRP reads -0.146. With RRIRIRPPRLPRPRPRPTHWPRP the figure was 0.133; with RRIRERPPRLPRPRPRPYNRPRP, -0.112; with RRIRIRPPRLPRPRPRPMAGPRP, 0.022. The result for RRIRLRPPRLPRPRPRPKPNPRP reads 0.288; that for RRIRWRPPRLPRPRPRPGVIPRP, 0.0325.

As for RRIRWRPPRLPRPRPRPDTRPRP, the “shrunken log2 fold change” value is -0.0523.

As to RRIRWRPPRLPRPRPRPQPDPRP, the “shrunken log2 fold change” value was determined as 0.32. The result for RRIRERPPRLPRPRPRPVMGPRP reads -0.123; that for RRIRYRPPRLPRPRPRPHEIPRP, -0.194; that for RRIRDRPPRLPRPRPRPMYDPRP, -0.208. The result for RRIRDRPPRLPRPRPRPETLPRP reads 0.452; that for RRIRGRPPRLPRPRPRPCTDPRP, 0.522; that for RRIRRRPPRLPRPRPRPHVWPRP, 0.242. With RRIRPRPPRLPRPRPRPNSIPRP the figure was -0.254; with RRIRARPPRLPRPRPRPDTYPRP, -0.11.

Consider RRIRNRPPRLPRPRPRPQMTPRP, for which the “shrunken log2 fold change” value was -0.661. Regarding RRIRERPPRLPRPRPRPLKYPRP, the “shrunken log2 fold change” value was -0.38. With RRIRDRPPRLPRPRPRPDVQPRP the figure was 0.0508. The result for RRIRHRPPRLPRPRPRPNMGPRP reads -0.0579.

As for RRIRLRPPRLPRPRPRPTGAPRP, the “shrunken log2 fold change” value is -0.211. Turning to RRIRIRPPRLPRPRPRPRHNPRP, the “shrunken log2 fold change” value is -0.245. With RRIRIRPPRLPRPRPRPKFCPRP the figure was -0.639. The result for RRIRERPPRLPRPRPRPGGNPRP reads -0.442; that for RRIRVRPPRLPRPRPRPTRMPRP, 0.0492; that for RRIRNRPPRLPRPRPRPGPGPRP, 0.274. The result for RRIRGRPPRLPRPRPRPAPNPRP reads 0.829. For RRIRFRPPRLPRPRPRPEQKPRP, the “shrunken log2 fold change” value came to 0.341. With RRIRNRPPRLPRPRPRPVLRPRP the figure was 0.00524.

Regarding RRIRFRPPRLPRPRPRPICHPRP, the “shrunken log2 fold change” value is -0.351. The result for RRIRARPPRLPRPRPRPQFFPRP reads 0.0526; that for RRIRRRPPRLPRPRPRPDFMPRP, 0.335. With RRIRMRPPRLPRPRPRPEGNPRP the figure was 0.182. Consider RRIRMRPPRLPRPRPRPYGSPRP, for which the “shrunken log2 fold change” value was -0.0489. The result for RRIRMRPPRLPRPRPRPDPEPRP reads 0.769; that for RRIRLRPPRLPRPRPRPRCEPRP, 0.194. With RRIRIRPPRLPRPRPRPCDTPRP the figure was -0.387. The result for RRIRSRPPRLPRPRPRPCAPPRP reads 0.0418; that for RRIRPRPPRLPRPRPRPYYMPRP, -0.864; that for RRIRFRPPRLPRPRPRPVDDPRP, -0.601. As for RRIRKRPPRLPRPRPRPFAIPRP, the “shrunken log2 fold change” value is -0.00592. With RRIRGRPPRLPRPRPRPNIGPRP the figure was 0.138. With RRIRMRPPRLPRPRPRPIPRPRP the figure was 0.634. With RRIRGRPPRLPRPRPRPPVHPRP the figure was 0.644; with RRIRERPPRLPRPRPRPNVPPRP, -0.0158. Consider RRIRARPPRLPRPRPRPTRRPRP, for which the “shrunken log2 fold change” value is 1.1.

As to RRIRLRPPRLPRPRPRPNLLPRP, the “shrunken log2 fold change” value turned out to be 0.153. RRIRTRPPRLPRPRPRPYGTPRP: the “shrunken log2 fold change” value was -0.347. The result for RRIRGRPPRLPRPRPRPTAYPRP reads 0.656; that for RRIRCRPPRLPRPRPRPADMPRP, -0.115; that for RRIRWRPPRLPRPRPRPARSPRP, 0.252. The result for RRIRDRPPRLPRPRPRPWLVPRP reads -0.117; that for RRIRGRPPRLPRPRPRPNMGPRP, 0.269. With RRIRMRPPRLPRPRPRPVHIPRP the figure was 0.00544; with RRIRKRPPRLPRPRPRPFHCPRP, -0.0128. Turning to RRIRCRPPRLPRPRPRPKKIPRP, the “shrunken log2 fold change” value is 0.00547. Take RRIRRRPPRLPRPRPRPSTHPRP: the “shrunken log2 fold change” value came out at 0.0934. With RRIRPRPPRLPRPRPRPEEVPRP the figure was 0.0532; with RRIRHRPPRLPRPRPRPYWFPRP, -0.963; with RRIRHRPPRLPRPRPRPQIFPRP, -0.135. The result for RRIRTRPPRLPRPRPRPIPGPRP reads -0.36; that for RRIRIRPPRLPRPRPRPWVIPRP, -0.0141; that for RRIRTRPPRLPRPRPRPPAQPRP, 0.608. In the case of RRIRERPPRLPRPRPRPEGNPRP, the “shrunken log2 fold change” value is 0.00934. The result for RRIRWRPPRLPRPRPRPLECPRP reads 0.0173; that for RRIRMRPPRLPRPRPRPERQPRP, 2.84.

Regarding RRIRCRPPRLPRPRPRPCLYPRP, the “shrunken log2 fold change” value is -0.117.

Regarding RRIRKRPPRLPRPRPRPATEPRP, the “shrunken log2 fold change” value came out at 0.486.

As for RRIRARPPRLPRPRPRPCYFPRP, the “shrunken log2 fold change” value is -0.324. The result for RRIRWRPPRLPRPRPRPMGSPRP reads -0.0192; that for RRIRERPPRLPRPRPRPNKAPRP, 0.12. As to RRIRGRPPRLPRPRPRPFWPPRP, the “shrunken log2 fold change” value was 0.653. With RRIRVRPPRLPRPRPRPTPSPRP the figure was 0.253; with RRIRARPPRLPRPRPRPVIKPRP, -0.136; with RRIRYRPPRLPRPRPRPQQHPRP, -0.278.

On to RRIRARPPRLPRPRPRPHFFPRP, for which the “shrunken log2 fold change” value was 1.8. With RRIRVRPPRLPRPRPRPTCKPRP the figure was -0.0395.

Consider RRIRNRPPRLPRPRPRPMLLPRP, for which the “shrunken log2 fold change” value is -0.0366. RRIRCRPPRLPRPRPRPQAIPRP: the “shrunken log2 fold change” value was -0.205. The result for RRIRPRPPRLPRPRPRPHYSPRP reads -0.167; that for RRIRQRPPRLPRPRPRPLLHPRP, -0.182; that for RRIRARPPRLPRPRPRPNWDPRP, 0.0564. With RRIRSRPPRLPRPRPRPKQEPRP the figure was 0.286; with RRIRVRPPRLPRPRPRPNIAPRP, 0.249; with RRIRQRPPRLPRPRPRPQIHPRP, -0.246. With RRIRLRPPRLPRPRPRPEVEPRP the figure was 0.0199. Consider RRIRNRPPRLPRPRPRPFKNPRP, for which the “shrunken log2 fold change” value came out at 0.0633. On to RRIRARPPRLPRPRPRPETGPRP, for which the “shrunken log2 fold change” value was 0.772. Take RRIRWRPPRLPRPRPRPRMNPRP: the “shrunken log2 fold change” value was -0.111. With RRIRRRPPRLPRPRPRPHFLPRP the figure was -0.196; with RRIRRRPPRLPRPRPRPWVDPRP, 0.0233.

As for RRIRDRPPRLPRPRPRPCMKPRP, the “shrunken log2 fold change” value is -0.0664. With RRIRLRPPRLPRPRPRPKNQPRP the figure was -0.202; with RRIRSRPPRLPRPRPRPFRQPRP, 3.58; with RRIRTRPPRLPRPRPRPRLVPRP, 0.0412.

RRIRHRPPRLPRPRPRPFTLPRP: the “shrunken log2 fold change” value is -0.312.

For RRIRLRPPRLPRPRPRPVTYPRP, the “shrunken log2 fold change” value is -0.0255.

On to RRIRERPPRLPRPRPRPHCQPRP, for which the “shrunken log2 fold change” value turned out to be 0.00361.

As to RRIRQRPPRLPRPRPRPGCLPRP, the “shrunken log2 fold change” value was found to be 0.129.

Consider RRIRPRPPRLPRPRPRPDEVPRP, for which the “shrunken log2 fold change” value is 0.188.
